Assay results: the supplement of paper PMC10126150
± gives the standard deviation of the averaged measurements.

System: ATP
Test: switch fluorescence ratio, 500 uM ATP over buffer (Cy3 cluster intensity, sum of 5 cycles each) (fold (ratio)); higher = stronger signal-on switching upon ATP binding; sequences stand for … in TCGTCGGCAGCGTCAGATGTGTATAAGAGACAGTTTTTTTTTTTTTTTTTTTTTTTTT…TC
Conditions: aptamer strand: ATP DNA aptamer (quencher-CACCTGGGGGAGTATTGCGGAGGAAGG + anchor), 100 nM annealed; ATP concentration: 500 uM
In short: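 Per cluster, summed Cy3 intensity from the target cycles was divided by that from the buffer cycles to give the fluorescence ratio, then averaged per switch-domain sequence. Clusters outside 100-1000 RFU were excluded. The Cy3-labelled switching-strand clusters, on a modified Illumina MiSeq flow-cell, were annealed to 100 nM quencher-labelled ATP aptamer and imaged in selection buffer, then after 15 min with 500 uM ATP at 22 °C, for five cycles with NaOH stripping and re-annealing between them.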
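Note: ATP exposure 15 min at 22 °C before imaging.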

Sequence	switch fluorescence ratio
TTTCGGGGAA	1.06 ± 0.1
TTTCGGGGGG	1.02 ± 0.037
TTTCGGTCAC	0.983 ± 0.0036
TTTCGGTCGT	1.03 ± 0.074
TTTCGGTTAT	1.02 ± 0.021
TTTCGGTTTG	1.02 ± 0.047
TTTCGTACTC	1.09 ± 0.13
TTTCGTATGT	0.997 ± 0.05
TTTCGTCATC	1.66 ± 0.91
TTTCGTTTCT	1.03 ± 0.024
TTTCTAGTTT	0.984 ± 0.026
TTTCTATGGT	1.003 ± 0.0073
TTTCTCAGTT	0.977 ± 0.02
TTTCTCGTTT	1.006 ± 0.0072
TTTCTGCAGT	1.27 ± 0.38
TTTCTTATTC	0.983 ± 0.022
TTTCTTATTT	1 ± 0.013
TTTCTTCCCT	1.13 ± 0.11
TTTCTTCTTT	1.02 ± 0.044
TTTCTTGCGG	1.012 ± 0.0019
TTTCTTGTCT	1.01 ± 0.035
TTTCTTTCTT	1.05 ± 0.083

Sequence	switch fluorescence ratio
TTTCTTTGGG	0.998 ± 0.043
TTTCTTTGGT	1.016 ± 0.0075
TTTGAAACCA	1.01 ± 0.024
TTTGAAATAT	1.01 ± 0.013
TTTGAAGCAA	4.2 ± 3.2
TTTGAAGCCG	0.989 ± 0.024
TTTGAAGCTA	2.19 ± 1.9
TTTGAATATT	0.991 ± 0.036
TTTGACAGGG	1.02 ± 0.014
TTTGACAGTA	1.07 ± 0.061
TTTGACCGGA	1.02 ± 0.072
TTTGACGATT	1 ± 0.049
TTTGACGCGT	1.02 ± 0.016
TTTGACGGGT	1.02 ± 0.029
TTTGACGTGC	1.02 ± 0.033
TTTGACTAAG	1.06 ± 0.099
TTTGAGAATT	1.01 ± 0.032
TTTGAGAGGT	1.05 ± 0.03
TTTGAGATAG	1.02 ± 0.012
TTTGAGATGT	1.04 ± 0.0048
TTTGAGCCAC	1.05 ± 0.0095
TTTGAGGACA	1.01 ± 0.012

Sequence	switch fluorescence ratio
TTTGAGGAGC	1.035 ± 0.0028
TTTGAGGGCG	1.01 ± 0.066
TTTGAGGGCT	1.006 ± 0.0023
TTTGAGGTAG	0.98 ± 0.019
TTTGAGGTGG	1.03 ± 0.043
TTTGAGTCAT	0.9713 ± 0.0092
TTTGAGTTTG	1.009 ± 0.0056
TTTGATAATT	1.07 ± 0.15
TTTGATACAG	1.012 ± 0.0071
TTTGATATTG	0.994 ± 0.038
TTTGATCGCT	1.28 ± 0.46
TTTGATTAAT	0.987 ± 0.011
TTTGATTCGG	0.983 ± 0.017
TTTGATTGGA	1.02 ± 0.011
TTTGATTGGG	1.01 ± 0.037
TTTGATTGTT	0.97 ± 0.043
TTTGCAAAAA	1.06 ± 0.082
TTTGCAAGGA	1.02 ± 0.045
TTTGCAATG	2.22 ± 1.6
TTTGCAGTTC	1.3 ± 0.32
TTTGCATTCT	1.004 ± 0.0078
TTTGCCAAAA	1.14 ± 0.23

Sequence	switch fluorescence ratio
TTTGCCGAGG	1.01 ± 0.015
TTTGCCGTTC	1.01 ± 0.042
TTTGCCTTGC	1.11 ± 0.067
TTTGCCTTGG	1.02 ± 0.018
TTTGCGACGT	1.02 ± 0.025
TTTGCGACTG	1.03 ± 0.015
TTTGCGGGAC	1.57 ± 0.47
TTTGCGGGGG	1.01 ± 0.035
TTTGCGGGGT	1.03 ± 0.034
TTTGCGTTAC	1.58 ± 0.053
TTTGCTACGT	1.01 ± 0.051
TTTGCTAG	1.013 ± 0.0095
TTTGCTATAG	1.23 ± 0.28
TTTGCTGTAT	0.9747 ± 0.0032
TTTGCTTAAT	1.02 ± 0.044
TTTGCTTTCT	1.02 ± 0.023
TTTGCTTTTC	0.994 ± 0.05
TTTGCTTTTT	1 ± 0.036
TTTGGAAAGG	0.977 ± 0.046
